The values below come from US20180127505A1, “HUMANIZED ANTI-AXL ANTIBODIES AND THEIR CONJUGATES” (MEDIMMUNE LIMITED, priority 2015, published 2018).

Experiment [1] concerns the target T1, AXL on MDA-MB-231 cells (UniProt P30530 26-894, limits assumed).
T1 sequence (looked up): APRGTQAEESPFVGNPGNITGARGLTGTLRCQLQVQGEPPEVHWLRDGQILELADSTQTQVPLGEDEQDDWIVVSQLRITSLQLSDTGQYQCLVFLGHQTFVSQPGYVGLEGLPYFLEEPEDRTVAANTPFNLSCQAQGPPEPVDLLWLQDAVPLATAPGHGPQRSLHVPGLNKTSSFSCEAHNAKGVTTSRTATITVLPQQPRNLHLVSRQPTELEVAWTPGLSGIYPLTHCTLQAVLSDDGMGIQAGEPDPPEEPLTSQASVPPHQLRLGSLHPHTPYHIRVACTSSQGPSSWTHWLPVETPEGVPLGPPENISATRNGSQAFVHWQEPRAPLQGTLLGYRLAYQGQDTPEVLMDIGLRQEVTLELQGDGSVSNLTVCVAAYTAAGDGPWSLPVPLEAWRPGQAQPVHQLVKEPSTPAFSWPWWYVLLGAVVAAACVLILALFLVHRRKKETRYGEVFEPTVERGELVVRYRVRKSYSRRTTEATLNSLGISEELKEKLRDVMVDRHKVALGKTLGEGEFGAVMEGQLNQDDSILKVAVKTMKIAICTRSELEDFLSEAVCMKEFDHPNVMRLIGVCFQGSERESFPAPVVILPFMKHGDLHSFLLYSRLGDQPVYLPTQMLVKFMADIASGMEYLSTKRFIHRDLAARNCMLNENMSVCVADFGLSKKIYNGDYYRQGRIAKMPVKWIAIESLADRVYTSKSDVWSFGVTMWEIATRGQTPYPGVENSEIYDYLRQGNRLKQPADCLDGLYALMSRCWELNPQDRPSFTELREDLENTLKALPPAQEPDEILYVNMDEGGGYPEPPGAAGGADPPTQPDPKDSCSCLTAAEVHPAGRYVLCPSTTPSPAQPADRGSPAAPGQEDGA
The experiment is described as follows: cell-based or functional assay.

The target of experiment [2] is T2, Human Axl-Fc chimera (R&D Systems #154-AL) (human, UniProt P30530 26-451).
T2 construct: Bought reagent; also called Axl-Fc antigen; AXL-Fc chimera antigen; Fc part of the bought chimera not given
T2 sequence: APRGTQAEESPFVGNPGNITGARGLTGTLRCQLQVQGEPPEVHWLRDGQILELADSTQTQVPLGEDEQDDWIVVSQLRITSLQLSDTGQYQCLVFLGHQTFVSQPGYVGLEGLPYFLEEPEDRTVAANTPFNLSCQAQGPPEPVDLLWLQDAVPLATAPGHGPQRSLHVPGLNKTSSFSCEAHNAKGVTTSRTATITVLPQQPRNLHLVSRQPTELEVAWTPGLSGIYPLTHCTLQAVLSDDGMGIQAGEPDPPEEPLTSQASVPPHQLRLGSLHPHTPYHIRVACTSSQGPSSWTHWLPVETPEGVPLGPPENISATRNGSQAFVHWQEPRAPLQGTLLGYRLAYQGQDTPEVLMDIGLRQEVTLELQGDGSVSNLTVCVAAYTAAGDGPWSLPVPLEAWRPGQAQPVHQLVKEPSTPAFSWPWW
The experiment in a line: SPR (Biacore T200), AXL-Fc amine-coupled to CM5 chip, antibody as analyte, bivalent model. A general note: SPR reads the build-up and loss of mass on a sensor chip optically.

Experiment [3] addresses T3, Human AXL-Strep-His (produced by Evitria AG in transiently transfected CHO cells) (human, UniProt P30530 26-451, limits assumed).
T3 construct: also called Axl-Strep-His antigen; human AxI-Strep-His; not shown: Strep and His tags
T3 sequence: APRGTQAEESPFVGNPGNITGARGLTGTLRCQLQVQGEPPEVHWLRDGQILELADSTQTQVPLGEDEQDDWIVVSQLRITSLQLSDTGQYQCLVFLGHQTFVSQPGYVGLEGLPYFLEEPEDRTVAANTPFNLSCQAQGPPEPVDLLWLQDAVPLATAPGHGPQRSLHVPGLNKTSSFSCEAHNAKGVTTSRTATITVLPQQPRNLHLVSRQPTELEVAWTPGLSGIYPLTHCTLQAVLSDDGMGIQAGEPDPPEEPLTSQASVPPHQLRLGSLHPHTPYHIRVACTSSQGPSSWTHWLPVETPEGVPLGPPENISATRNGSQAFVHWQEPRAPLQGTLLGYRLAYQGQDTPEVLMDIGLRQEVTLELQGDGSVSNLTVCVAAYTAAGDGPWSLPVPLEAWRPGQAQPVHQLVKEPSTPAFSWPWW
The experiment is described as follows: SPR (Biacore T200), AXL-Strep-His amine-coupled to CM5 chip, antibody as analyte, bivalent model.

Experiment [4] concerns the target T3, Human AXL-Strep-His (produced by …). The experiment in a line: SPR (Biacore T200), AXL-Strep-His amine-coupled to CM5 chip, antibody as analyte, bivalent model; column head KD1.
The target of experiment [5] is T4, Cynomolgus monkey AXL (Macaca fascicularis, UniProt A0A2K5WXE0).
T4 construct: form not described
T4 sequence (antigen): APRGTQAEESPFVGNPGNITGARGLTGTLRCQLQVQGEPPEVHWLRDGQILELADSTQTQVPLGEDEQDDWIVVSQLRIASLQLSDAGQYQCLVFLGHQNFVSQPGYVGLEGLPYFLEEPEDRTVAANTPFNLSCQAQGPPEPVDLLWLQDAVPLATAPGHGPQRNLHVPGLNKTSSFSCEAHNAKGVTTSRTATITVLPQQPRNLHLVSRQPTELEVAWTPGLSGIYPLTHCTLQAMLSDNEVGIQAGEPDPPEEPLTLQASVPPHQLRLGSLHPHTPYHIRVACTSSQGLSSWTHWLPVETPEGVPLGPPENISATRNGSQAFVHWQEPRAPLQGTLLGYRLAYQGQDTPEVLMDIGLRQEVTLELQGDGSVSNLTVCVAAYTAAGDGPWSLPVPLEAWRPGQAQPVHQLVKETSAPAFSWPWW
The experiment in a line: ELISA on cynomolgus monkey AXL (coating antigen not described in the text), OD 450nm against Log10[IgG (µg/mL)] [B. Cynomolgus monkey AXL].

Experiment [6] deals with T3, Human AXL-Strep-His (produced by …). The experiment is described as follows: human AXL ELISA (Protocol 4), untreated antibody of the accelerated stability analysis, OD 450nm against Log10[IgG (µg/mL)]. Background: ELISA stands for enzyme-linked immunosorbent assay.
For experiment [7] the target is unchanged. The experiment in a line: ELISA on plate-coated human AXL-Strep-His (Protocol 4), OD 450nm against Log10[IgG (µg/mL)] [A. Human Axl].
The target is the same in experiment [8]. The experiment is described as follows: SPR (Biacore T200), AXL-Strep-His amine-coupled to CM5 chip, antibody as analyte, heterogeneous ligand model.
Experiment [9] shares this target. The experiment is described as follows: SPR (Biacore T200), AXL-Strep-His amine-coupled to CM5 chip, antibody as analyte, heterogeneous ligand model; column head KD1; heterogeneous ligand model; AXL-Strep-His antigen.

B1: Ab2-ConjE (Ab2 conjugated to the ConjE PBD payload, DAR 2.4) (other)
VH: MGFKMESQFQVFVFVFLWLSGVDGQVQLVESGGGVVQPGRSLRLSCAASGFTFSSYGMSVRQAPGKGLEWVATISSGGSYTYYPDSVKGRFTISRDNSKNTLYLQMNSLRAEDTAVYYCARHPIYYTYDDTMDYWGQGTTVTVSS
VL: EIVLTQSPATLSLSPGERATLSCSASSSVSSGNFHWYQQKPGLAPRLLIYRTSNLASGIPDRFSGSGSGTDFTLTISRLEPEDFAVYYCQQWSGYPWTFGPGTKVDIK
modifications: ConjE PBD drug-linker on cysteine thiol(s) of the antibody, sites not stated; DAR 2.4
Consider B1, for which the “GI50 (pg/ml), MDA-MB-231 cytotoxicity, MTS assay, 5 days” value (shortened to “GI50 (pg/ml), MDA-MB-231 cytotoxicity”) in experiment [1] is 73 pg/mL.

B2: Ab3-ConjE (Ab3 conjugated to the ConjE PBD payload, DAR 2.2) (other)
VH: MGFKMESQFQVFVFVFLWLSGVDGQVQLVESGGGVVQPGRSLRLSCAASGFTFSSYGMSVRQAPGKGLEWVATISSGGSYTYYPDSVKGRFTISRDNSKNTLYLQMNSLRAEDTAVYYCARHPIYYTYDDTMDYWGQGTTVTVSS
VL: EIVLTQSPGTLSLSPGERATLSCSASSSVSSGNFHWYQQKPGLAPRLLIYRTSNLASGIPARFSGSGSGTDFTLTISSLEPEDFAVYYCQQWSGYPWTFGGGTKLEIK
modifications: ConjE PBD drug-linker on cysteine thiol(s) of the antibody, sites not stated; DAR 2.2
As to B2, the “GI50 (pg/ml), MDA-MB-231 cytotoxicity” value in experiment [1] is 27.6 pg/mL.

B3: Ab5-ConjE (Ab5 conjugated to the ConjE PBD payload, DAR 2.3) (other)
VH: EVQLVESGGGLVQPGGSLRLSCAASGFTFSSYGMSWVRQAPGKGLEWVATISSGGSYTYYPDSVKGRFTISRDNAKNSLYLQMNSLRAEDTAVYYCARHPIYYTYDDTMDYWGQGTLVTVSS
VL: EIVLTQSPGTLSLSPGERATLSCSASSSVSSGNFHWYQQKPGLAPRLLIYRTSNLASGIPARFSGSGSGTDFTLTISSLEPEDFAVYYCQQWSGYPWTFGGGTKLEIK
modifications: ConjE PBD drug-linker on cysteine thiol(s) of the antibody, sites not stated; DAR 2.3
As for B3, in [1], the “GI50 (pg/ml), MDA-MB-231 cytotoxicity” value is 44 pg/mL.

B4: Ab4-ConjE (Ab4 conjugated to the ConjE PBD payload, DAR 2.6) (other)
VH: EVQLVESGGGLVQPGGSLRLSCAASGFTFSSYGMSWVRQAPGKGLEWVATISSGGSYTYYPDSVKGRFTISRDNAKNSLYLQMNSLRAEDTAVYYCARHPIYYTYDDTMDYWGQGTLVTVSS
VL: EIVLTQSPATLSLSPGERATLSCSASSSVSSGNFHWYQQKPGLAPRLLIYRTSNLASGIPDRFSGSGSGTDFTLTISRLEPEDFAVYYCQQWSGYPWTFGPGTKVDIK
modifications: ConjE PBD drug-linker on cysteine thiol(s) of the antibody, sites not stated; DAR 2.6
Turning to B4, in experiment [1], the “GI50 (pg/ml), MDA-MB-231 cytotoxicity” value stood at 64.2 pg/mL.

B5: Ab4, anti-AXL antibody comprising VH SEQ ID NO. 3 and VL SEQ ID NO. 5 and a constant region derived from one or more human antibodies (antibody, V domains shown)
VH: EVQLVESGGGLVQPGGSLRLSCAASGFTFSSYGMSWVRQAPGKGLEWVATISSGGSYTYYPDSVKGRFTISRDNAKNSLYLQMNSLRAEDTAVYYCARHPIYYTYDDTMDYWGQGTLVTVSS
VL: EIVLTQSPATLSLSPGERATLSCSASSSVSSGNFHWYQQKPGLAPRLLIYRTSNLASGIPDRFSGSGSGTDFTLTISRLEPEDFAVYYCQQWSGYPWTFGPGTKVDIK
For the molecule B5, the Kd turned out to be 1.37 nM in experiment [2] and 60.4 nM in experiment [4]. Further, the values for the koff in [2] and in experiment [3] were 0.000396 s⁻¹ and 0.00059 s⁻¹, respectively. Besides, the association rate constant (kon) is 290000 M⁻¹ s⁻¹ in [2] and 9760 M⁻¹ s⁻¹ in experiment [3]. For the same molecule, the “EC50 (read off the curve)” value is around 20 ng/mL in experiment [5], around 20 ng/mL in experiment [6] and around 30 ng/mL in experiment [7].

B6: Ab5, anti-AXL antibody comprising VH SEQ ID NO. 3 and VL SEQ ID NO. 7 and a constant region derived from one or more human antibodies (antibody, V domains shown)
VH: EVQLVESGGGLVQPGGSLRLSCAASGFTFSSYGMSWVRQAPGKGLEWVATISSGGSYTYYPDSVKGRFTISRDNAKNSLYLQMNSLRAEDTAVYYCARHPIYYTYDDTMDYWGQGTLVTVSS
VL: EIVLTQSPGTLSLSPGERATLSCSASSSVSSGNFHWYQQKPGLAPRLLIYRTSNLASGIPARFSGSGSGTDFTLTISSLEPEDFAVYYCQQWSGYPWTFGGGTKLEIK
As for B6, the Kd in [2] came out at 7.69 nM; in experiment [4], 23 nM. For the same molecule, the koff came out at 0.000159 s⁻¹ in [2] and 0.000435 s⁻¹ in experiment [3]. For the same molecule, the kon is 20600 M⁻¹ s⁻¹ in [2] and 18900 M⁻¹ s⁻¹ in experiment [3]. Further, the “EC50 (read off the curve)” value in [5] was around 30 ng/mL; in experiment [6] it was around 20 ng/mL.

B7: Ab1-ConjE (Ab1 conjugated to the ConjE PBD payload, DAR 2.2) (other)
VH: EVQLVESGGDLVKPGGSLKLSCAASGFTFSSYGMSWVRQTPDKRLEWVATISSGGSYTYYPDSVKGRFTISRDNAKNTLYLQMSSLKSEDTAMYYCARHPIYYTYDDTMDYWGQGTSVTVSS
VL: ENVLTQSPAIMAASPGEKVTMTCSASSSVSSGNFHWYQQKPGTSPKLWIYRTSNLASGVPARFSGSGSGTSYSLTISSMEAEDAATYYCQQWSGYPWTFGGGTKLEIK
modifications: ConjE PBD drug-linker on cysteine thiol(s) of the antibody, sites not stated; DAR 2.2
For B7, the “GI50 (pg/ml), MDA-MB-231 cytotoxicity” value in experiment [1] is 6.95 pg/mL.

B8: Ab1, anti-AXL antibody comprising the murine 1H12 VH (SEQ ID NO. 1) and VL (SEQ ID NO. 4) and a constant region derived from one or more human antibodies (antibody, V domains shown)
VH: EVQLVESGGDLVKPGGSLKLSCAASGFTFSSYGMSWVRQTPDKRLEWVATISSGGSYTYYPDSVKGRFTISRDNAKNTLYLQMSSLKSEDTAMYYCARHPIYYTYDDTMDYWGQGTSVTVSS
VL: ENVLTQSPAIMAASPGEKVTMTCSASSSVSSGNFHWYQQKPGTSPKLWIYRTSNLASGVPARFSGSGSGTSYSLTISSMEAEDAATYYCQQWSGYPWTFGGGTKLEIK
notes: also called Abl; chimeric 1H12
Turning to B8, the koff is 0.000533 s⁻¹ in experiment [8] and 0.000142 s⁻¹ in experiment [2]. Further, the values for the association rate constant (kon) in [8] and in experiment [2] were 13100 M⁻¹ s⁻¹ and 30900 M⁻¹ s⁻¹, respectively. Moreover, the results for the Kd in experiment [2] and in experiment [9] were 4.6 nM and 40.7 nM, respectively. The “EC50 (read off the curve)” value is around 20 ng/mL in experiment [5], around 10 ng/mL in experiment [6] and around 30 ng/mL in [7].

For orientation: koff means the first-order rate constant of dissociation. A word on the kon: it is a measure of how fast the partners come together. As usually defined, the EC50 (read off the curve) is the concentration giving half of the maximal effect.
